Laboratory results as given in doi:10.1101/2023.12.24.573241.

What was measured:
[1] = biological target: Taxol-stabilized microtubules polymerized from pig brain tubulin, labeled with biotin and AZDye647 (pig) (UniProt P02550); assay: TIRF single-molecule motility assay
[2] = biological target: DmUNC-104^bris (full-length DmUNC-104 R562H, C-terminal sfGFP and 2xStrep-tag II) (Drosophila melanogaster) (UniProt A1ZAJ2); assay: mass photometry

Chain of UniProt P02550 (P02550 whole entry): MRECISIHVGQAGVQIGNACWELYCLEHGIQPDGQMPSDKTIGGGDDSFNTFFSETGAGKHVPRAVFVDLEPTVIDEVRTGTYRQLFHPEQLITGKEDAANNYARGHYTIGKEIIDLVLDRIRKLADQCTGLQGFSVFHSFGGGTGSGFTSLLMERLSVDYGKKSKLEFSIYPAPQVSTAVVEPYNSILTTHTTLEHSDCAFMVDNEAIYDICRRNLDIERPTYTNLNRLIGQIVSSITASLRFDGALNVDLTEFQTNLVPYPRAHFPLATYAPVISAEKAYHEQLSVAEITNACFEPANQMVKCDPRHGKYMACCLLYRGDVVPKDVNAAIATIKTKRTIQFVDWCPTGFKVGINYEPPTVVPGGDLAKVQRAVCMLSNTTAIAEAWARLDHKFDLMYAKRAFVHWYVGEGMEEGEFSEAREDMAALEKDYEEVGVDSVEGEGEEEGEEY

Q: What does the source list for “DmUNC-104^bris (full-length DmUNC-104 R562H, C-terminal sfGFP and 2xStrep-tag II) (from UniProt A1ZAJ2 1-1670) (natural protein)”?
A: landing rate (median) (molecules/µm/s) [1]: 0.034; landing rate of motile motors (median) (molecules/µm/s) [1]: 0.015; percent of particles as dimer [2]: 71%; stoichiometry N [2]: 2
